The values below come from US20140242080A1 (Hoffmann-La Roche, published 2014).

The target in assay [1] is T1, human MCSP expressed on tumor cells (Colo-38, WM266-4, A375, MV-3, HCT-116) (human, UniProt Q6UVK1 30-2322). The experiment in a line: cell-based or functional assay.
Assay [2] deals with T1, human MCSP expressed on tumor cells …. The experiment in a line: cell-based or functional assay. The source holds these as a separate data set.
Assay [3] has the same target. The experiment in a line: flow cytometry on WM266-4 cells. On the procedure: (§1) Binding of the different bispecific constructs to CD3 on Jurkat cells (ATCC #TIB-152), and the respective tumor antigen on target cells, was determined by FACS. Briefly, cells were harvested, counted and checked for viability. 0.15-0.2 million cells per well (in PBS containing 0.1% BSA; 90 μl) were plated in a round-bottom 96-well plate and incubated with the indicated concentration of the bispecific constructs and corresponding IgG controls (10 μl) for 30 min at 4° C. […] After the incubation, cells were centrifuged (5 min, 350×g), washed with 150 μl PBS containing 0.1% BSA, resuspended and incubated for further 30 min at 4° C. with 12 μl/well of a FITC- or PE-conjugated secondary antibody. Bound constructs were detected using a FACSCantoII (Software FACS Diva). The “(scFv)₂” molecule was detected using a FITC-conjugated anti-His antibody (Lucerna, #RHIS-45F-Z). For all other molecules, a FITC- or PE-conjugated AffiniPure F(ab′)2 Fragment goat anti-human IgG Fcγ Fragment Specific (Jackson Immuno Research Lab #109-096-098/working solution 1:20, or #109-116-170/working solution 1:80, respectively) was used. Cells were washed by addition of 120 μl/well PBS containing 0.1% BSA and centrifugation at 350×g for 5 min. A second washing step was performed with 150 μl/well PBS containing 0.1% BSA. […] EC50 values were calculated using the GraphPad Prism software.
(In general: Flow cytometry measures light scatter and fluorescence of single cells or particles in a stream.)

Assay [4] addresses T2, human CD3 expressed on Jurkat cells (human, UniProt P07766 23-207).
T2 construct: CD3 complex on Jurkat T cells; also called CD3 on Jurkat cells; huCD3
The experiment in a line: flow cytometry on Jurkat cells. On the procedure:
as §1
As a control, the equivalent maximum concentration of the corresponding IgGs and the background staining due to the labeled 2ndary antibody (goat anti-human FITC-conjugated AffiniPure F(ab′)2 Fragment, FcγFragment-specific, Jackson Immuno Research Lab #109-096-098) were assessed as well.

For assay [5], the target named is T2, human CD3 expressed on Jurkat cells. The experiment in a line: flow cytometry on Jurkat cells, 50 nM. Here is the method:
as §1
(§2) In a first experiment, different bispecific constructs targeting human MCSP and human CD3 were analyzed by flow cytometry for binding to human CD3 expressed on Jurkat, human T cell leukaemia cells, or to human MCSP on Colo-38 human melanoma cells.

Assay [6] concerns the target T1, human MCSP expressed on tumor cells …. The experiment in a line: flow cytometry on Colo-38 cells, 50 nM. Here is the method: as §1, §2
Another assay deals with T3, HuFcγRIIIa-V158-K6H6 (human, UniProt P08637 17-208, limits assumed).
T3 construct: His-tagged recombinant receptor captured by anti-Penta His antibody; also called human FcγRIIIa-V158; human FcγRIIIa
T3 sequence (P08637 17-208 F176V limits assumed): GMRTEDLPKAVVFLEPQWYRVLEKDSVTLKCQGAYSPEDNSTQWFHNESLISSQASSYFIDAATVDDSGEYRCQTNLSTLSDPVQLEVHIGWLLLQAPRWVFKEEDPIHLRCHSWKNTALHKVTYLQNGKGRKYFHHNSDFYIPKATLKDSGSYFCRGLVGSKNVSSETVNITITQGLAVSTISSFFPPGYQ
The experiment in a line: SPR Biacore T100, 25 C; receptor captured via anti-Penta His, construct as analyte; kinetic, one concentration (1000 nM). Here is the method: For analyzing interaction of different Fc-variants with human FcγRIIIa-V158 and murine FcγRIV direct coupling of around 6,500 resonance units (RU) of the anti-Penta His antibody (Qiagen) is performed on a CM5 chip at pH 5.0 using the standard amine coupling kit (Biacore, Freiburg/Germany). HuFcγRIIIa-V158-K6H6 and muFcγRIV-aviHis-biotin are captured for 60 s at 4 and 10 nM respectively.
Constructs with different Fc-mutations are passed through the flow cells for 120 s at a concentration of 1000 nM with a flow rate of 30 μl/min. The dissociation is monitored for 220 s. Bulk refractive index differences are corrected for by subtracting the response obtained in a reference flow cell. […] Affinity for human FcγRIIIa-V158 and murine FcγRIV was determined for wild-type Fc using a concentration range from 500-4000 nM.
A general note: Surface plasmon resonance follows binding to a sensor surface in real time, without labels.

Changes are numbered by the printed parent chain. Names may count otherwise.

T1 sequence (Q6UVK1 30-2322): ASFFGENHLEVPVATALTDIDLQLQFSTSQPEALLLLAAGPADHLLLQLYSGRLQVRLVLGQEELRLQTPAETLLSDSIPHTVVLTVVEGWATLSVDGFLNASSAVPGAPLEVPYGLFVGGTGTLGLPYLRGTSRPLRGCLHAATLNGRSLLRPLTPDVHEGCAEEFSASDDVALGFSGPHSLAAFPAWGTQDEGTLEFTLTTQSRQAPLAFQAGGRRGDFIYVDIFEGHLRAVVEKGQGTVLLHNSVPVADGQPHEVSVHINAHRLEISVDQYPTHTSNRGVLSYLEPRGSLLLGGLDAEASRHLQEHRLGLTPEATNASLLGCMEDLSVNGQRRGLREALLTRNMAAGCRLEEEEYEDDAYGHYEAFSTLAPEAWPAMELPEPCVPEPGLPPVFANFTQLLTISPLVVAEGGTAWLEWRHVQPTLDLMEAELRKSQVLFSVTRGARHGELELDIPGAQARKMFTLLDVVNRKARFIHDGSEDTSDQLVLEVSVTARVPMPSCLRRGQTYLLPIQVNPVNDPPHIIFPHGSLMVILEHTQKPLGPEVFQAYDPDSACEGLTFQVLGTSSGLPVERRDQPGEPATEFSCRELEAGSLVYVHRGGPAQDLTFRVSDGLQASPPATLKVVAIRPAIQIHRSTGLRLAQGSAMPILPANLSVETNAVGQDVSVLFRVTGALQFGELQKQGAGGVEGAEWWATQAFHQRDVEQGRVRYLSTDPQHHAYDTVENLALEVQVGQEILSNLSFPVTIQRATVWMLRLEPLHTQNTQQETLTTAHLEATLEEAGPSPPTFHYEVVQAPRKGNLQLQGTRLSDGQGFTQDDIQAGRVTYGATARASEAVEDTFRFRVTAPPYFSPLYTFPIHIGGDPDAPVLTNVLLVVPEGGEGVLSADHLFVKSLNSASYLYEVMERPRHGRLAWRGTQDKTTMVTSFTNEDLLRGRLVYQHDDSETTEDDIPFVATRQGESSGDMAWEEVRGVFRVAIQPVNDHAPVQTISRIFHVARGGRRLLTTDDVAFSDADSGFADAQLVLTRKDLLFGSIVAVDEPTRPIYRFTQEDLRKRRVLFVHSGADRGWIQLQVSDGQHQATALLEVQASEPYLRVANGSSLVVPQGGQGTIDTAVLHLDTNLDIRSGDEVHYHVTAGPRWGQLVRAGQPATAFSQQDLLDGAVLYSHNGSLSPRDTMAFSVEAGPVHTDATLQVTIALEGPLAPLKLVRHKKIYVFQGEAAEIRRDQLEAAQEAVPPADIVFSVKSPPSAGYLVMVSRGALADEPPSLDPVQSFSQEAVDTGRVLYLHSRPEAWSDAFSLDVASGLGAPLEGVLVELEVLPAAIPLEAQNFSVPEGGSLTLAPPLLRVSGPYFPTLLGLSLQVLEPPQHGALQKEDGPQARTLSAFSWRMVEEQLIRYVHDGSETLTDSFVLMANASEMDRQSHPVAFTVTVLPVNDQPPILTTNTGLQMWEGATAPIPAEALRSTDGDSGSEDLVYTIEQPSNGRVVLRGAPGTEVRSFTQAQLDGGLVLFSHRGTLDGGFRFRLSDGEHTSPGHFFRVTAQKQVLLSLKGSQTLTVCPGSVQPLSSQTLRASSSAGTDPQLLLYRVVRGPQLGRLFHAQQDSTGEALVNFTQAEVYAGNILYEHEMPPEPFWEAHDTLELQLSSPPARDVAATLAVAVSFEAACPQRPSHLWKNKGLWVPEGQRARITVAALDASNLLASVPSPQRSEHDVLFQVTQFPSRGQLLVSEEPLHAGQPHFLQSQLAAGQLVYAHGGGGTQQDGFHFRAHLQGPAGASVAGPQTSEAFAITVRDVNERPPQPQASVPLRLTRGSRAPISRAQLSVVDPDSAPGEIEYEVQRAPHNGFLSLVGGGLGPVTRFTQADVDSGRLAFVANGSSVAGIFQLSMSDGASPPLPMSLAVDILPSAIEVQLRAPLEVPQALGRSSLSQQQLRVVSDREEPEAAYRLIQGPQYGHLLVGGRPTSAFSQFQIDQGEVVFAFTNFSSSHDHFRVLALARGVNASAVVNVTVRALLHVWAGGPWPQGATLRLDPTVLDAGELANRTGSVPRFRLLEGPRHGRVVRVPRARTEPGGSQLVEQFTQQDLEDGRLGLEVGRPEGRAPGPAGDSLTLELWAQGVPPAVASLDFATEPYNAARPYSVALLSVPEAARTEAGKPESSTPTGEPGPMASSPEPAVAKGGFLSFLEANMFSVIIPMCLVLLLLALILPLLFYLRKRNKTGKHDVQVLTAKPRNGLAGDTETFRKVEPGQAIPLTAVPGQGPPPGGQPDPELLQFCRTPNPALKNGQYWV
T2 sequence (P07766 23-207 limits assumed): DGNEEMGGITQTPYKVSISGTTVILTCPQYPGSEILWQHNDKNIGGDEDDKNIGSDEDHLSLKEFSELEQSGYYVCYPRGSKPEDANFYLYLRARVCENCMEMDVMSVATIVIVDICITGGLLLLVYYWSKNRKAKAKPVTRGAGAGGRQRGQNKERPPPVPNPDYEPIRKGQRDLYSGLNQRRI

B1: 2 + 1 IgG Crossfab; VH/VL exchange (LC007/V9) (anti-MCSP/anti-huCD3) (bispecific antibody)
chain 1: not shown
chain 2: DIVLTQSPSSLSASLGDRVTISCSASQGIRNYLNWYQQRPDGTVKLLIYYTSSLHSGVPSRFSGSGSGTDYSLTISNLEPEDIATYYCQQYSKLPWTFGGGTKLEIKRTVAAPSVFIFPPSDEQLKSGTASVVCLLNNFYPREAKVQWKVDNALQSGNSQESVTEQDSKDSTYSLSSTLTLSKADYEKHKVYACEVTHQGLSSPVTKSFNRGEC
chain 3: DIQMTQSPSSLSASVGDRVTITCRASQDIRNYLNWYQQKPGKAPKLLIYYTSRLESGVPSRFSGSGSGTDYTLTISSLQPEDFATYYCQQGNTLPWTFGQGTKVEIKSSASTKGPSVFPLAPSSKSTSGGTAALGCLVKDYFPEPVTVSWNSGALTSGVHTFPAVLQSSGLYSLSSVVTVPSSSLGTQTYICNVNHKPSNTKVDKKVEPKSCGGGGSGGGGSEVQLQESGPGLVKPSQSLSLTCSVTGYSITSGYYWNWIRQFPGNKLEWMGYITYDGSNNYNPSLKNRISITRDTSKNQFFLKLNSVTTEDTATYYCADFDYWGQGTTLTVSSASTKGPSVFPLAPSSKSTSGGTAALGCLVKDYFPEPVTVSWNSGALTSGVHTFPAVLQSSGLYSLSSVVTVPSSSLGTQTYICNVNHKPSNTKVDKKVEPKSCDKTHTCPPCPAPEAAGGPSVFLFPPKPKDTLMISRTPEVTCVVVDVSHEDPEVKFNWYVDGVEVHNAKTKPREEQYNSTYRVVSVLTVLHQDWLNGKEYKCKVSNKALGAPIEKTISKAKGQPREPQVCTLPPSRDELTKNQVSLSCAVKGFYPSDIAVEWESNGQPENNYKTTPPVLDSDGSFFLVSKLTVDKSRWQQGNVFSCSVMHEALHNHYTQKSLSLSPGK
chain 4: EVQLVESGGGLVQPGGSLRLSCAASGYSFTGYTMNWVRQAPGKGLEWVALINPYKGVSTYNQKFKDRFTISVDKSKNTAYLQMNSLRAEDTAVYYCARSGYYGDSDWYFDVWGQGTLVTVSSASVAAPSVFIFPPSDEQLKSGTASVVCLLNNFYPREAKVQWKVDNALQSGNSQESVTEQDSKDSTYSLSSTLTLSKADYEKHKVYACEVTHQGLSSPVTKSFNRGEC
notes: vectors second heavy chain:light chain:first heavy chain-heavy chain Crossfab:light chain Crossfab 1:2:1:1; also called 2+1 IgG Crossfab (V9)
As a reminder, the EC50 is the concentration needed to bring the measured effect to its halfway point. Read a low EC50 as greater potency. As for B1, in assay [1], the “EC50 [pM] of T cell-mediated killing (LDH release), MV-3 cells, human PBMCs E:T 10:1, about 24 h” value amounted to 10 pM and the “EC50 [pM] of T cell-mediated killing (LDH release), WM266-4 cells, human PBMCs E:T 10:1, about 24 h” value is 12.4 pM. Besides, in assay [2], the “EC50 of T cell-mediated killing (LDH release), MV-3 cells, human PBMCs E:T 10:1, 21 h” value came to 0.0092 nM and the “EC50 of T cell-mediated killing (LDH release), WM266-4 cells, human PBMCs E:T 10:1, 21 h” value came out at 0.0331 nM. This molecule gave an EC50 in assay [3] of 0.95 nM. This molecule came in with an EC50 in assay [4] of 1.66 nM.

B2: 2 + 1 IgG Crossfab, inverted; CL/CH1 exchange (LC007/anti-CD3) (anti-MCSP/anti-huCD3) (bispecific antibody)
chain 1: B1 chain 2
chain 2: EVQLQESGPGLVKPSQSLSLTCSVTGYSITSGYYWNWIRQFPGNKLEWMGYITYDGSNNYNPSLKNRISITRDTSKNQFFLKLNSVTTEDTATYYCADFDYWGQGTTLTVSSASTKGPSVFPLAPSSKSTSGGTAALGCLVKDYFPEPVTVSWNSGALTSGVHTFPAVLQSSGLYSLSSVVTVPSSSLGTQTYICNVNHKPSNTKVDKKVEPKSCDKTHTCPPCPAPEAAGGPSVFLFPPKPKDTLMISRTPEVTCVVVDVSHEDPEVKFNWYVDGVEVHNAKTKPREEQYNSTYRVVSVLTVLHQDWLNGKEYKCKVSNKALGAPIEKTISKAKGQPREPQVCTLPPSRDELTKNQVSLSCAVKGFYPSDIAVEWESNGQPENNYKTTPPVLDSDGSFFLVSKLTVDKSRWQQGNVFSCSVMHEALHNHYTQKSLSLSPGK
chain 3: QAVVTQESALTTSPGETVTLTCRSSTGAVTTSNYANWVQEKPDHLFTGLIGGTNKRAPGVPARFSGSLIGDKAALTITGAQTEDEAIYFCALWYSNLWVFGGGTKLTVLSSASTKGPSVFPLAPSSKSTSGGTAALGCLVKDYFPEPVTVSWNSGALTSGVHTFPAVLQSSGLYSLSSVVTVPSSSLGTQTYICNVNHKPSNTKVDKKVEPKSC
chain 4: not shown
notes: also called 2+1 IgG Crossfab, inverted (anti-CD3)
Take B2: in assay [1], the “EC50 [pM] of T cell-mediated killing (LDH release), MV-3 cells, human PBMCs E:T 10:1, about 24 h” value was 3 pM and the “EC50 [pM] of T cell-mediated killing (LDH release), WM266-4 cells, human PBMCs E:T 10:1, about 24 h” value was 7.1 pM. In assay [3], this molecule returned an EC50 of 3.4 nM. In assay [4], this molecule showed an EC50 of 32 nM.

B3: “1+1 IgG scFab, one armed” (anti-MCSP/anti-huCD3) (bispecific antibody)
chain 1: not shown
chain 2: not shown
chain 3: B1 chain 2
As to B3, the binding result in assay [5] and in assay [6] was “binds” each time.

B4: 2 + 1 IgG Crossfab; CL/CH1 exchange (LC007/anti-CD3) (anti-MCSP/anti-huCD3) (bispecific antibody)
chain 1: B1 chain 2
chain 2: B2 chain 2
chain 3: B2 chain 3
chain 4: not shown
notes: also called 2+1 IgG Crossfab (anti-CD3)
As to B4, the “EC50 [pM] of T cell-mediated killing (LDH release), MV-3 cells, human PBMCs E:T 10:1, about 24 h” value in assay [1] turned out to be 11 pM. Also, in assay [1], the “EC50 [pM] of T cell-mediated killing (LDH release), WM266-4 cells, human PBMCs E:T 10:1, about 24 h” value was 11.3 pM. Besides, the values for the EC50 in assay [3] and in assay [4] were 3.1 nM and 10.3 nM, respectively.

B5: “2+1 IgG scFab, LALA” (anti-MCSP/anti-huCD3) (bispecific antibody)
chain 1: B1 chain 2
chain 2: not shown
chain 3: B2 chain 2 with G324P
notes: Fc with L234A L235A; also called Fc-LALA; copies: 2 + 1 + 1
Usually Kd stands for the free concentration of one partner at which half of the binding sites on the other are occupied at equilibrium, for simple one-to-one binding. Read a low Kd as a tighter complex. On to B5, for which the binding result in assay [5] and in assay [6] was “binds” each time. In addition, the affinity in the assay with HuFcγRIIIa-V158-K6H6, expressed as Kd, was 2130 nM.

B6: “1+1 IgG scFab, one armed inverted” (anti-MCSP/anti-huCD3) (bispecific antibody)
chain 1: DIVLTQSPSSLSASLGDRVTISCSASQGIRNYLNWYQQRPDGTVKLLIYYTSSLHSGVPSRFSGSGSGTDYSLTISNLEPEDIATYYCQQYSKLPWTFGGGTKLEIKRTVAAPSVFIFPPSDEQLKSGTASVVCLLNNFYPREAKVQWKVDNALQSGNSQESVTEQDSKDSTYSLSSTLTLSKADYEKHKVYACEVTHQGLSSPVTKSFNRGECSGGGSGGGSEGGGSEGGGSEGGGSEGGGSGGGSGEVQLQESGPGLVKPSQSLSLTCSVTGYSITSGYYWNWIRQFPGNKLEWMGYITYDGSNNYNPSLKNRISITRDTSKNQFFLKLNSVTTEDTATYYCADFDYWGQGTTLTVSSASTKGPSVFPLAPSSKSTSGGTAALGCLVKDYFPEPVTVSWNSGALTSGVHTFPAVLQSSGLYSLSSVVTVPSSSLGTQTYICNVNHKPSNTKVDKKVEPKSCDGGGGSGGGGSGAQDKTHTCPPCPAPEAAGGPSVFLFPPKPKDTLMISRTPEVTCVVVDVSHEDPEVKFNWYVDGVEVHNAKTKPREEQYNSTYRVVSVLTVLHQDWLNGKEYKCKVSNKALPAPIEKTISKAKGQPREPQVCTLPPSRDELTKNQVSLSCAVKGFYPSDIAVEWESNGQPENNYKTTPPVLDSDGSFFLVSKLTVDKSRWQQGNVFSCSVMHEALHNHYTQKSLSLSPGK
chain 2: not shown
chain 3: not shown
For the molecule B6, the binding result in assay [5] and in assay [6] was “binds” throughout.
